Patent US6869925 (Amgen, dated 2005)

Experiments:
[1] = target: SLPI binding sites on HuT78 cells (human T cell line) (human); test: 125I-SLPI saturation binding, intact HuT78 cells, *SLPI at 80 pM
[2] = target: SLPI binding sites on U937 cells (human monocyte cell line; intact cells, PMA-induced cells or plasma membranes) (human); test: 125I-SLPI saturation binding, intact U937 cells, *SLPI at 320 pM
[3] = target: SLPI binding sites on U937 cells (human monocyte cell line; intact cells, PMA-induced cells or plasma membranes) (human); test: 125I-SLPI saturation binding, intact U937 cells, *SLPI at 640 pM
[4] = target: SLPI binding sites on HuT78 cells (human T cell line) (human); test: 125I-SLPI saturation binding, intact HuT78 cells, *SLPI at 320 pM
[5] = target: SLPI binding sites on HuT78 cells (human T cell line) (human); test: 125I-SLPI saturation binding, intact HuT78 cells, *SLPI at 640 pM
[6] = target: SLPI binding sites on U937 cells (human monocyte cell line; intact cells, PMA-induced cells or plasma membranes) (human); test: competition with 125I-SLPI, intact U937 cells, cold SLPI at 84 nM
[7] = target: SLPI binding sites on HuT78 cells (human T cell line) (human); test: 125I-SLPI saturation binding, intact HuT78 cells, *SLPI at 2560 pM
[8] = target: SLPI binding sites on U937 cells (human monocyte cell line; intact cells, PMA-induced cells or plasma membranes) (human); test: competition with 125I-SLPI, intact U937 cells, cold SLPI at 2.6 nM
[9] = target: SLPI binding sites on U937 cells (human monocyte cell line; intact cells, PMA-induced cells or plasma membranes) (human); test: competition with 125I-SLPI, intact U937 cells, Kd by Cheng-Prusoff
[10] = target: SLPI binding sites on U937 cells (human monocyte cell line; intact cells, PMA-induced cells or plasma membranes) (human); test: Scatchard plot of 125I-SLPI saturation binding, intact U937 cells
[11] = target: SLPI binding sites on U937 cells (human monocyte cell line; intact cells, PMA-induced cells or plasma membranes) (human); test: 125I-SLPI saturation binding, intact U937 cells, *SLPI at 10,240 pM
[12] = target: SLPI binding sites on HuT78 cells (human T cell line) (human); test: competition with 125I-SLPI, intact HuT78 cells, cold SLPI at 860 nM
[13] = target: SLPI binding sites on HuT78 cells (human T cell line) (human); test: competition with 125I-SLPI, intact HuT78 cells, competitor at 84 nM
[14] = target: SLPI binding sites on HuT78 cells (human T cell line) (human); test: 125I-SLPI saturation binding, intact HuT78 cells, *SLPI at 10,240 pM
[15] = target: SLPI binding sites on U937 cells (human monocyte cell line; intact cells, PMA-induced cells or plasma membranes) (human); test: 125I-SLPI saturation binding, U937 cells minus PMA, *SLPI at 5120 pM
[16] = target: SLPI binding sites on HuT78 cells (human T cell line) (human); test: competition with 125I-SLPI, intact HuT78 cells, cold SLPI at 0.00 nM
[17] = target: SLPI binding sites on U937 cells (human monocyte cell line; intact cells, PMA-induced cells or plasma membranes) (human); test: competition with 125I-SLPI, intact U937 cells, competitor at 0.25 nM
[18] = target: SLPI binding sites on HuT78 cells (human T cell line) (human); test: competition with 125I-SLPI, intact HuT78 cells, competitor at 2.6 nM
[19] = target: SLPI binding sites on U937 cells (human monocyte cell line; intact cells, PMA-induced cells or plasma membranes) (human); test: competition with 125I-SLPI, intact U937 cells, competitor at 0.024 nM
[20] = target: SLPI binding sites on HuT78 cells (human T cell line) (human); test: competition with 125I-SLPI, intact HuT78 cells, competitor at 0.80 nM
[21] = target: SLPI binding sites on HuT78 cells (human T cell line) (human); test: competition with 125I-SLPI, intact HuT78 cells, competitor at 2750 nM
[22] = target: SLPI binding sites on U937 cells (human monocyte cell line; intact cells, PMA-induced cells or plasma membranes) (human); test: competition with 125I-SLPI, U937 plasma membranes, competitor at 0 nM
[23] = target: SLPI binding sites on U937 cells (human monocyte cell line; intact cells, PMA-induced cells or plasma membranes) (human); test: Scatchard plot of 125I-SLPI saturation binding, PMA-induced U937 cells
[24] = target: SLPI binding sites on U937 cells (human monocyte cell line; intact cells, PMA-induced cells or plasma membranes) (human); test: Scatchard plot of 125I-SLPI saturation binding, non-induced U937 cells
[25] = target: SLPI binding sites on U937 cells (human monocyte cell line; intact cells, PMA-induced cells or plasma membranes) (human); test: competition with 125I-SLPI, U937 plasma membranes, competitor at 8.20 nM
[26] = target: SLPI binding sites on U937 cells (human monocyte cell line; intact cells, PMA-induced cells or plasma membranes) (human); test: competition with 125I-SLPI, U937 plasma membranes, competitor at 83.9 nM

Sequence of serine leukocyte protease inhibitor (SLPI) (P03973 26-132): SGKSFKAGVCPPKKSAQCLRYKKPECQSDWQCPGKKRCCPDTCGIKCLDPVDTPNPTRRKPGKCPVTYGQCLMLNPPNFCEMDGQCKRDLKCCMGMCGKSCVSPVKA

Q: “serine leukocyte protease inhibitor (SLPI) (from UniProt P03973 26-132)” was tested. Which bound pM [1] did it give?
A: 0.75 pM

Q: What about the bound per free [1] of the same substance?
A: 0.0095

Q: And the sites bound per cell (sites per cell) [1]?
A: 45

Q: What about the specific cpm [1] of the same substance?
A: 30 cpm

Q: And the bound *SLPI (pM) [2]?
A: 65.7 pM

Q: And the bound per free [2]?
A: 0.258

Q: And the sites bound per cell (sites per cell) [2]?
A: 3960

Q: And the specific cpm [2]?
A: 2620 cpm

Q: What about the bound *SLPI (pM) [3] of the same substance?
A: 116 pM

Q: What about the bound per free [3] of the same substance?
A: 0.221

Q: What about the sites bound per cell (sites per cell) [3] of the same substance?
A: 6990

Q: And the specific cpm [3]?
A: 4630 cpm

Q: And the bound pM [4]?
A: 2.53 pM

Q: And the bound per free [4]?
A: 0.0079

Q: What about the sites bound per cell (sites per cell) [4] of the same substance?
A: 152

Q: What about the specific cpm [4] of the same substance?
A: 101 cpm

Q: And the bound pM [5]?
A: 2.53 pM

Q: And the bound per free [5]?
A: 0.0039

Q: And the sites bound per cell (sites per cell) [5]?
A: 152

Q: And the specific cpm [5]?
A: 101 cpm

Q: And the % *SLPI BOUND [6]?
A: 3.5%

Q: What about the bound pM [7] of the same substance?
A: 9.98 pM

Q: And the bound per free [7]?
A: 0.0039

Q: And the sites bound per cell (sites per cell) [7]?
A: 501

Q: What about the specific cpm [7] of the same substance?
A: 398 cpm

Q: And the % *SLPI BOUND [8]?
A: 55%

Q: What about the Kd [9] of the same substance?
A: 2 nM

Q: What about the Kd [10] of the same substance?
A: 2 nM

Q: And the bound *SLPI (pM) [11]?
A: 463 pM

Q: And the bound per free [11]?
A: 0.047

Q: What about the sites bound per cell (sites per cell) [11] of the same substance?
A: 27900

Q: And the specific cpm [11]?
A: 18500 cpm

Q: What about the % *SLPI BOUND [12] of the same substance?
A: 8.7%

Q: What about the % *SLPI BOUND [13] of the same substance?
A: 27%

Q: And the bound pM [14]?
A: 32.7 pM

Q: And the bound per free [14]?
A: 0.0032

Q: What about the sites bound per cell (sites per cell) [14] of the same substance?
A: 1970

Q: And the specific cpm [14]?
A: 1300 cpm

Q: What about the bound *SLPI (pM) [15] of the same substance?
A: 748 pM

Q: What about the bound per free [15] of the same substance?
A: 0.171

Q: And the sites bound per cell (sites per cell) [15]?
A: 45100

Q: What about the specific cpm [15] of the same substance?
A: 7990 cpm

Q: And the % *SLPI BOUND [16]?
A: 100%

Q: What about the % *SLPI BOUND [17] of the same substance?
A: 106%

Q: What about the % *SLPI BOUND [18] of the same substance?
A: 76%

Q: What about the % *SLPI BOUND [19] of the same substance?
A: 111%

Q: What about the % *SLPI BOUND [20] of the same substance?
A: 79%

Q: What about the % *SLPI BOUND [21] of the same substance?
A: 0%

Q: And the CPM *SLPI BOUND [22]?
A: 18700 cpm

Q: And the Kd [23]?
A: 1 nM

Q: What about the Kd [24] of the same substance?
A: 1.1 nM

Q: What about the CPM *SLPI BOUND [25] of the same substance?
A: 5710 cpm

Q: And the CPM *SLPI BOUND [26]?
A: 2070 cpm
